Measured values reported in patent US20110200608A1 (UNIVERSITY OF PITTSBURGH OF THE COMMONWEALTH SYSTEM OF …, published 2011).
Bridges are numbered along the chain shown (N, C = ends). Where no end group is shown, it is not given here.

What was measured:
[1] = biological target: T1, HMW-MAA-specific human scFv C21 (biotinylated (NHS-LC-biotin) in the competition and panning assays); test: calculated from a molecular docking model (…); not measured
[2] = biological target: T1, HMW-MAA-specific human scFv C21; test: inhibition cell ELISA: peptide incubated 2 h at 4 °C with PP scFv C21 (1:1600) and biotinylated mAb 9E10, then added to Colo38 cells, SA-HRP; blocked ligand: HMW-MAA on Colo38 cells
[3] = biological target: T1, HMW-MAA-specific human scFv C21; test: SPR (Biacore 3000, 25 C), peptide over amine-coupled scFv C21, koff/kon
[4] = biological target: T1, HMW-MAA-specific human scFv C21; test: SPR (Biacore 3000, 25 C), peptide over amine-coupled scFv C21, 1:1 Langmuir fit

T1 sequence (chain, as listed by the source): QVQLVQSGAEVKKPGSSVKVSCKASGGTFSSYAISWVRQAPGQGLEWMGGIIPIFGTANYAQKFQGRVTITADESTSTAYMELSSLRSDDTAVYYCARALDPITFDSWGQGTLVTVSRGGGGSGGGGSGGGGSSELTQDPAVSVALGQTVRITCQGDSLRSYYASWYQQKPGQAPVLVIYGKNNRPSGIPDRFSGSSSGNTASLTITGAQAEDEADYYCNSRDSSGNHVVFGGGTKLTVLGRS

Row | Binder | Total Energy (calculated binding energy) [1] | IC50 (read off the curve) [2] | Kd [3] | koff [4] | kon [4]
1 | RPYRYDPLGDLKSRH [peptide P3C21 (RPYRYDPLGDLKSRH), linear] | -7.3 kcal/mol | ~1 µM | 30.2 µM | 0.0655 s⁻¹ | 2170 M⁻¹ s⁻¹
2 | SPSWYCPDCDKRPLV (disulfide 6-9 (inferred), Synthetic peptide) [peptide P1C21 (SPSWYCPDCDKRPLV), cyclized] | -93.8 kcal/mol | ~3 µM | 8.24 µM | 0.0097 s⁻¹ | 1180 M⁻¹ s⁻¹
3 | RPYRYDPLGSLKSRH [peptide P3S10 (RPYRYDPLGSLKSRH)] | -16.4 kcal/mol |  | 3.34 µM | 0.00307 s⁻¹ | 917 M⁻¹ s⁻¹
